Laboratory results taken from PMC2675579, “Structure of N-acetylglucosamine-1-phosphate uridyltransferase (GlmU) from Mycobacterium tuberculosis in a cubic space group” (Acta Crystallographica Section F: Structural Biology and …, 2009).

Target: the molecule itself
Assay: SEC; 26/60 Superdex200 High Load gel-filtration column, 20 mM HEPES pH 7.5, 150 mM NaCl, 1 mM DTT

B1: N-acetylglucosamine-1-phosphate uridyltransferase (GlmU) from Mycobacterium tuberculosis (enzyme)
chain: MTFPGDTAVLVLAAGPGTRMRSDTPKVLHTLAGRSMLSHVLHAIAKLAPQRLIVVLGHDHQRIAPLVGELADTLGRTIDVALQDRPLGTGHAVLCGLSALPDDYAGNVVVTSGDTPLLDADTLADLIATHRAVSAAVTVLTTTLDDPFGYGRILRTQDHEVMAIVEQTDATPSQREIREVNAGVYAFDIAALRSALSRLSSNNAQQELYLTDVIAILRSDGQTVHASHVDDSALVAGVNNRVQLAELASELNRRVVAAHQLAGVTVVDPATTWIDVDVTIGRDTVIHPGTQLLGRTQIGGRCVVGPDTTLTDVAVGDGASVVRTHGSSSSIGDGAAVGPFTYLRPGTALGADGKLGAFVEVKNSTIGTGTKVPHLTYVGDADIGEYSNIGASSVFVNYDGTSKRRTTVGSHVRTGSDTMFVAPVTIGDGAYTGAGTVVREDVPPGALAVSAGPQRNIENWVQRKRPGSPAAQASKRASEMACQQPTQPPDADQTP
notes: GlmU, Mycobacterium tuberculosis, gene Rv1018c (glmU); model built for residues 1-472; also called Rv1018c gene product; M. tuberculosis GlmU
  stoichiometry N: 3
